Measurements as given in US10280205B2, “Method for treating cancer with an activated T lymphocyte that selectively recognizes a cancer cell consisting of specific peptide” (immatics biotechnologies GmbH, priority 2015, dated 2019).

Target: HLA-A*02:01 (Homo sapiens, UniProt P04439, D140Y/D185E/D98H/E176V/E277Q/G131W/G231S/I119V/I121R/I166T/I218V/L300P/L318F/N151K/N90K/P208A/P217A/Q86G/Q94H/R138H/R169H/T345S)
Assay: MHC binding assay: UV-ligand exchange with beta2m ELISA (exchange yield)
Conditions: binding to HLA-A*02:01, β2m ELISA
In short: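 Peptide–HLA-A*02:01 complexes formed by UV-induced exchange of a photocleavable ligand for the test peptide. Exchange products diluted 100-fold and captured on streptavidin-coated plates. Stabilized complexes detected with HRP anti-β2m (1 h, 37° C.) and TMB, A450; exchange yield reported.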

“561 (YLQLTQSEL; listed as Homo sapiens) [compound 561]” was tested, and the “Peptide exchange (MHC class I binding score, peptide exchange yield)” value (shortened to “Peptide exchange”) was ““+++” (≥50 = +++)”.
With “115 (AIAGAGILYGV; listed as Homo sapiens) [compound 115]” the “Peptide exchange” value was ““++” (≥20% = ++)”.
“66 (FLDENIGGVAV; listed as Homo sapiens) [compound 66]” was tested, and the “Peptide exchange” value was ““+++” (≥50 = +++)”.
“542 (RVWDISTVSSV; listed as Homo sapiens) [compound 542]” was tested, and the “Peptide exchange” value was ““+++” (≥50 = +++)”.
“264 (SLQEQLHSV; listed as Homo sapiens) [compound 264]” was tested, and the “Peptide exchange” value was ““+++” (≥50 = +++)”.
For “124 (ALYETELADA; listed as Homo sapiens) [compound 124]”, the “Peptide exchange” value was ““++” (≥20% = ++)”.
With “400 (SLLTEQDLWTV; listed as Homo sapiens) [compound 400]” the “Peptide exchange” value was ““++” (≥20% = ++)”.
In the case of “528 (SVAEGRALMSV; listed as Homo sapiens) [compound 528]”, the “Peptide exchange” value is reported as ““+++” (≥50 = +++)”.
In the case of “562 (YLEELPEKLKL; listed as Homo sapiens) [compound 562]”, the “Peptide exchange” value is reported as ““+++” (≥50 = +++)”.
“492 (SLFDGFADGLGV; listed as Homo sapiens) [compound 492]” was tested, and the “Peptide exchange” value was ““+++” (≥50 = +++)”.
For “185 (FLIDDKGYTL; listed as Homo sapiens) [compound 185]”, the “Peptide exchange” value was ““++” (≥20% = ++)”.
With “471 (YLYNNMIAKI; listed as Homo sapiens) [compound 471]” the “Peptide exchange” value was ““+++” (≥50 = +++)”.
With “73 (NIFDLQIYV; listed as Homo sapiens) [compound 73]” the “Peptide exchange” value was ““+++” (≥50 = +++)”.
With “12 (SLWPDPMEV; listed as Homo sapiens) [compound 12]” the “Peptide exchange” value was ““+++” (≥50 = +++)”.
In the case of “348 (ILLDVKTRL; listed as Homo sapiens) [compound 348]”, the “Peptide exchange” value is reported as ““++++” (≥75% = ++++)”.
With “239 (AAFAGKLLSV; listed as Homo sapiens) [compound 239]” the “Peptide exchange” value was ““+++” (≥50 = +++)”.
With “479 (SLFGNSGILENV; listed as Homo sapiens) [compound 479]” the “Peptide exchange” value was ““+++” (≥50 = +++)”.
For “408 (VLDDSIYLV; listed as Homo sapiens) [compound 408]”, the “Peptide exchange” value was ““++” (≥20% = ++)”.
For “480 (ALLEDSCHYL; listed as Homo sapiens) [compound 480]”, the “Peptide exchange” value was ““+++” (≥50 = +++)”.
“29 (KMLGIPISNILMV; listed as Homo sapiens) [compound 29]” was tested, and the “Peptide exchange” value was ““+++” (≥50 = +++)”.
“184 (YLMDINGKMWL; listed as Homo sapiens) [compound 184]” was tested, and the “Peptide exchange” value was ““+++” (≥50 = +++)”.
With “393 (GLLDTQTSQVLTA; listed as Homo sapiens) [compound 393]” the “Peptide exchange” value was ““++” (≥20% = ++)”.
“491 (GLNDRSDAV; listed as Homo sapiens) [compound 491]” was tested, and the “Peptide exchange” value was ““++” (≥20% = ++)”.
For “525 (VLLEAGEGLVTI; listed as Homo sapiens) [compound 525]”, the “Peptide exchange” value was ““+++” (≥50 = +++)”.
For “612 (YLYNEGLSV; listed as Homo sapiens) [compound 612]”, the “Peptide exchange” value was ““+++” (≥50 = +++)”.
With “466 (VLIANLEKL; listed as Homo sapiens) [compound 466]” the “Peptide exchange” value was ““++++” (≥75% = ++++)”.
“86 (NLIGKIENV; listed as Homo sapiens) [compound 86]” was tested, and the “Peptide exchange” value was ““+++” (≥50 = +++)”.
“288 (NLINEINGV; listed as Homo sapiens) [compound 288]” was tested, and the “Peptide exchange” value was ““+++” (≥50 = +++)”.
For “475 (LLLNEEALAQI; listed as Homo sapiens) [compound 475]”, the “Peptide exchange” value was ““+++” (≥50 = +++)”.
For “363 (KVLDVSDLESV; listed as Homo sapiens) [compound 363]”, the “Peptide exchange” value was ““++” (≥20% = ++)”.
“129 (GLLDGGVDILL; listed as Homo sapiens) [compound 129]” was tested, and the “Peptide exchange” value was ““+++” (≥50 = +++)”.
In the case of “403 (KLYDRILRV; listed as Homo sapiens) [compound 403]”, the “Peptide exchange” value is reported as ““++” (≥20% = ++)”.
With “205 (SLYPGTETMGL; listed as Homo sapiens) [compound 205]” the “Peptide exchange” value was ““+++” (≥50 = +++)”.
For “204 (KIAENVEEV; listed as Homo sapiens) [compound 204]”, the “Peptide exchange” value was ““++” (≥20% = ++)”.
“246 (LLWEVVSQL; listed as Homo sapiens) [compound 246]” was tested, and the “Peptide exchange” value was ““+++” (≥50 = +++)”.
“62 (VLLDVSAGQLLM; listed as Homo sapiens) [compound 62]” was tested, and the “Peptide exchange” value was ““++++” (≥75% = ++++)”.
In the case of “330 (QLALKVEGV; listed as Homo sapiens) [compound 330]”, the “Peptide exchange” value is reported as ““+++” (≥50 = +++)”.
In the case of “456 (LLIGHLERV; listed as Homo sapiens) [compound 456]”, the “Peptide exchange” value is reported as ““+++” (≥50 = +++)”.
“208 (KISPVTFSV; listed as Homo sapiens) [compound 208]” was tested, and the “Peptide exchange” value was ““+++” (≥50 = +++)”.
In the case of “569 (KLVDRTWTL; listed as Homo sapiens) [compound 569]”, the “Peptide exchange” value is reported as ““+++” (≥50 = +++)”.
“78 (SLFSSLEPQIQPV; listed as Homo sapiens) [compound 78]” was tested, and the “Peptide exchange” value was ““+++” (≥50 = +++)”.
“311 (RLYTGMHTV; listed as Homo sapiens) [compound 311]” was tested, and the “Peptide exchange” value was ““+++” (≥50 = +++)”.
“251 (ALYTGFSILV; listed as Homo sapiens) [compound 251]” was tested, and the “Peptide exchange” value was ““++” (≥20% = ++)”.
For “545 (LLADLLHNV; listed as Homo sapiens) [compound 545]”, the “Peptide exchange” value was ““+++” (≥50 = +++)”.
In the case of “261 (YVLEFLEEI; listed as Homo sapiens) [compound 261]”, the “Peptide exchange” value is reported as ““++” (≥20% = ++)”.
In the case of “309 (GLFDGVPTTA; listed as Homo sapiens) [compound 309]”, the “Peptide exchange” value is reported as ““+++” (≥50 = +++)”.
“372 (TMLLNIPLV; listed as Homo sapiens) [compound 372]” was tested, and the “Peptide exchange” value was ““++” (≥20% = ++)”.
For “5 (HLTEVYPEL; listed as Homo sapiens) [compound 5]”, the “Peptide exchange” value was ““+++” (≥50 = +++)”.
In the case of “175 (YLFENISQL; listed as Homo sapiens) [compound 175]”, the “Peptide exchange” value is reported as ““+++” (≥50 = +++)”.
With “162 (YQQAQVPSV; listed as Homo sapiens) [compound 162]” the “Peptide exchange” value was ““+++” (≥50 = +++)”.
With “337 (HLLSELEAAPYL; listed as Homo sapiens) [compound 337]” the “Peptide exchange” value was ““++++” (≥75% = ++++)”.
For “215 (QLINHLHAV; listed as Homo sapiens) [compound 215]”, the “Peptide exchange” value was ““+++” (≥50 = +++)”.
“623 (YLVEDIQHI; listed as Homo sapiens) [compound 623]” was tested, and the “Peptide exchange” value was ““+++” (≥50 = +++)”.
For “490 (FLLQHVQEL; listed as Homo sapiens) [compound 490]”, the “Peptide exchange” value was ““+++” (≥50 = +++)”.
With “512 (SLSEIVPCL; listed as Homo sapiens) [compound 512]” the “Peptide exchange” value was ““+++” (≥50 = +++)”.
“146 (SLATAGDGLIEL; listed as Homo sapiens) [compound 146]” was tested, and the “Peptide exchange” value was ““++” (≥20% = ++)”.
“365 (YVIDQGETDVYV; listed as Homo sapiens) [compound 365]” was tested, and the “Peptide exchange” value was ““+++” (≥50 = +++)”.
With “567 (SLLPLDDIVRV; listed as Homo sapiens) [compound 567]” the “Peptide exchange” value was ““+++” (≥50 = +++)”.
“526 (RLAEVGQYEQV; listed as Homo sapiens) [compound 526]” was tested, and the “Peptide exchange” value was ““++” (≥20% = ++)”.
With “84 (VTFGEKLLGV; listed as Homo sapiens) [compound 84]” the “Peptide exchange” value was ““++” (≥20% = ++)”.
With “17 (GLLPGDRLVSV; listed as Homo sapiens) [compound 17]” the “Peptide exchange” value was ““+++” (≥50 = +++)”.
